Assay results published in publication PMC11897156, “Ex.50.T aptamer impairs tumor–stroma cross-talk in breast cancer by targeting gremlin-1”.

Tests used:
Gremlin-1 (recombinant) [1] = molecular target: T1, Gremlin-1 (recombinant) (UniProt O60565 25-184); test: SPR; GREM1 immobilized, aptamer 0.062-1 uM, 25 C; kon 3.39e4 M-1 s-1, koff 1.58e-3 s-1; Aptamer refolded 85 C 5 min, 4 C 2 min, 37 C 10 min; ELONA: PBS, 3% BSA block, 1 h; pull-down: 10 mM PBS with Ca2+ and Mg2+, room temperature; SPR at 25 C (buffer not in material); cell binding: serum-free medium, 37 C, 30 min; conditions: protein: commercial; chain copies: 2; label: biotin (ELONA, pull-down); none stated for SPR; hairpin; predicted stem of 11 bp, 2 internal loops, 1 terminal loop
T1 sequence: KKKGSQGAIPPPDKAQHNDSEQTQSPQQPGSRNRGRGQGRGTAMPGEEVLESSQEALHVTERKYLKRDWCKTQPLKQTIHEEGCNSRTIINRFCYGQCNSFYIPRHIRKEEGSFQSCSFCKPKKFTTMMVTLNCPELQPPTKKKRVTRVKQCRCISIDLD

Gremlin-1 (recombinant) [2] = molecular target: T1, Gremlin-1 (recombinant); test: ELONA; apparent Kd; unit inferred, nM implied by agreement with SPR; GREM1 coated, 200 nM aptamer; Aptamer refolded 85 C 5 min, 4 C 2 min, 37 C 10 min; ELONA: PBS, 3% BSA block, 1 h; pull-down: 10 mM PBS with Ca2+ and Mg2+, room temperature; SPR at 25 C (buffer not in material); cell binding: serum-free medium, 37 C, 30 min; conditions: protein: commercial; chain copies: 2; label: biotin (ELONA, pull-down); none stated for SPR; hairpin; predicted stem of 11 bp, 2 internal loops, 1 terminal loop

B1: ex.50.T (structured_RNA)
RNA: UGUGGCAGUUAAGAAUAGAUCUUCGCUGCGAUU
modifications: lowercase u/c in printed sequence probably 2'-F pyrimidines (not stated in material)
Work on B1 yielded a Kd (Gremlin-1 (recombinant) [1]) of 46.7 nM and a Kd (Gremlin-1 (recombinant) [2]) of 37.7 nM.
